Measured values from US12630600B2 (MEDIMMUNE LIMITED, priority 2022, dated 2026).
Starred links: 1 amine or outer side, 2 acyl side, 3 side chain; linkers in the order of their positions; H or OH if unused. Non-standard residues stand in square brackets, D forms with d. Groups on a side chain read outwards from the residue. No end group written: not given here. *: point of attachment. C20 diacid = O=C(O)CCCCCCCCCCCCCCCCCCC(=O)*; C18 diacid = O=C(O)CCCCCCCCCCCCCCCCC(=O)*; γGlu = O=C(O)[C@H](CCC(=O)[*:2])N[*:1]; αMeF = C[C@](N)(Cc1ccccc1)C(=O)O; AEEA = NCCOCCOCC(=O)O; Aib = CC(C)(N)C(=O)O

Tests used:
human GLP-1 receptor = human GLP-1 receptor (human, UniProt P43220); experiment: cell-based or functional assay
human glucagon receptor = human glucagon receptor (human, UniProt P47871); experiment: cell-based or functional assay

Binder | cAMP production EC50 (human GLP-1 receptor) | cAMP production EC50 (human glucagon receptor)
H[Aib]QGTFTSDVSK[αMeF]LESK([AEEA-AEEA-γGlu-C18 diacid])RAQDFVQWLL[Aib]E-OH (N-terminus assumed; SMILES CC(C)C[C@H](NC(=O)[C@H](Cc1c[nH]c2ccccc12)NC(=O)[C@H](CCC(N)=O)NC(=O)[C@@H](NC(=O)[C@H](Cc1ccccc1)NC(=O)[C@H](CC(=O)O)NC(=O)[C@H](CCC(N)=O)NC(=O)[C@H](C)NC(=O)[C@H](CCCNC(=N)N)NC(=O)[C@H](CCCCNC(=O)COCCOCCNC(=O)COCCOCCNC(=O)CC[C@H](NC(=O)CCCCCCCCCCCCCCCCC(=O)O)C(=O)O)NC(=O)[C@H](CO)NC(=O)[C@H](CCC(=O)O)NC(=O)[C@H](CC(C)C)NC(=O)[C@](C)(Cc1ccccc1)NC(=O)[C@H](CCCCN)NC(=O)[C@H](CO)NC(=O)[C@@H](NC(=O)[C@H](CC(=O)O)NC(=O)[C@H](CO)NC(=O)[C@@H](NC(=O)[C@H](Cc1ccccc1)NC(=O)[C@@H](NC(=O)CNC(=O)[C@H](CCC(N)=O)NC(=O)C(C)(C)NC(=O)[C@@H](N)Cc1c[nH]cn1)[C@@H](C)O)[C@@H](C)O)C(C)C)C(C)C)C(=O)N[C@@H](CC(C)C)C(=O)NC(C)(C)C(=O)N[C@@H](CCC(=O)O)C(=O)O) [Peptide 482] | 0.19 nM | 0.691 nM
H[Aib]QGTFTSDVSK[αMeF]LDTK([AEEA-AEEA-γGlu-C20 diacid])RAQDFVRWLLE[Aib]K-NH2 (N-terminus assumed; SMILES CC(C)C[C@H](NC(=O)[C@H](Cc1c[nH]c2ccccc12)NC(=O)[C@H](CCCNC(=N)N)NC(=O)[C@@H](NC(=O)[C@H](Cc1ccccc1)NC(=O)[C@H](CC(=O)O)NC(=O)[C@H](CCC(N)=O)NC(=O)[C@H](C)NC(=O)[C@H](CCCNC(=N)N)NC(=O)[C@H](CCCCNC(=O)COCCOCCNC(=O)COCCOCCNC(=O)CC[C@H](NC(=O)CCCCCCCCCCCCCCCCCCC(=O)O)C(=O)O)NC(=O)[C@@H](NC(=O)[C@H](CC(=O)O)NC(=O)[C@H](CC(C)C)NC(=O)[C@](C)(Cc1ccccc1)NC(=O)[C@H](CCCCN)NC(=O)[C@H](CO)NC(=O)[C@@H](NC(=O)[C@H](CC(=O)O)NC(=O)[C@H](CO)NC(=O)[C@@H](NC(=O)[C@H](Cc1ccccc1)NC(=O)[C@@H](NC(=O)CNC(=O)[C@H](CCC(N)=O)NC(=O)C(C)(C)NC(=O)[C@@H](N)Cc1c[nH]cn1)[C@@H](C)O)[C@@H](C)O)C(C)C)[C@@H](C)O)C(C)C)C(=O)N[C@@H](CC(C)C)C(=O)N[C@@H](CCC(=O)O)C(=O)NC(C)(C)C(=O)N[C@@H](CCCCN)C(N)=O) [Peptide 479] | 0.0342 nM | 0.207 nM
H[Aib]QGTFTSDVSK[αMeF]LDTK([AEEA-AEEA-γGlu-C20 diacid])RAQDFVRWLLA[Aib]G-NH2 (N-terminus assumed; SMILES CC(C)C[C@H](NC(=O)[C@H](CC(C)C)NC(=O)[C@H](Cc1c[nH]c2ccccc12)NC(=O)[C@H](CCCNC(=N)N)NC(=O)[C@@H](NC(=O)[C@H](Cc1ccccc1)NC(=O)[C@H](CC(=O)O)NC(=O)[C@H](CCC(N)=O)NC(=O)[C@H](C)NC(=O)[C@H](CCCNC(=N)N)NC(=O)[C@H](CCCCNC(=O)COCCOCCNC(=O)COCCOCCNC(=O)CC[C@H](NC(=O)CCCCCCCCCCCCCCCCCCC(=O)O)C(=O)O)NC(=O)[C@@H](NC(=O)[C@H](CC(=O)O)NC(=O)[C@H](CC(C)C)NC(=O)[C@](C)(Cc1ccccc1)NC(=O)[C@H](CCCCN)NC(=O)[C@H](CO)NC(=O)[C@@H](NC(=O)[C@H](CC(=O)O)NC(=O)[C@H](CO)NC(=O)[C@@H](NC(=O)[C@H](Cc1ccccc1)NC(=O)[C@@H](NC(=O)CNC(=O)[C@H](CCC(N)=O)NC(=O)C(C)(C)NC(=O)[C@@H](N)Cc1c[nH]cn1)[C@@H](C)O)[C@@H](C)O)C(C)C)[C@@H](C)O)C(C)C)C(=O)N[C@@H](C)C(=O)NC(C)(C)C(=O)NCC(N)=O) [Peptide 477] | 0.0541 nM | 0.117 nM
H[Aib]QGTFTSDVSK[αMeF]LDTK([AEEA-AEEA-γGlu-C18 diacid])RAQDFVRWLLA[Aib]G-NH2 (N-terminus assumed; SMILES CC(C)C[C@H](NC(=O)[C@H](CC(C)C)NC(=O)[C@H](Cc1c[nH]c2ccccc12)NC(=O)[C@H](CCCNC(=N)N)NC(=O)[C@@H](NC(=O)[C@H](Cc1ccccc1)NC(=O)[C@H](CC(=O)O)NC(=O)[C@H](CCC(N)=O)NC(=O)[C@H](C)NC(=O)[C@H](CCCNC(=N)N)NC(=O)[C@H](CCCCNC(=O)COCCOCCNC(=O)COCCOCCNC(=O)CC[C@H](NC(=O)CCCCCCCCCCCCCCCCC(=O)O)C(=O)O)NC(=O)[C@@H](NC(=O)[C@H](CC(=O)O)NC(=O)[C@H](CC(C)C)NC(=O)[C@](C)(Cc1ccccc1)NC(=O)[C@H](CCCCN)NC(=O)[C@H](CO)NC(=O)[C@@H](NC(=O)[C@H](CC(=O)O)NC(=O)[C@H](CO)NC(=O)[C@@H](NC(=O)[C@H](Cc1ccccc1)NC(=O)[C@@H](NC(=O)CNC(=O)[C@H](CCC(N)=O)NC(=O)C(C)(C)NC(=O)[C@@H](N)Cc1c[nH]cn1)[C@@H](C)O)[C@@H](C)O)C(C)C)[C@@H](C)O)C(C)C)C(=O)N[C@@H](C)C(=O)NC(C)(C)C(=O)NCC(N)=O) [Peptide 476] | 0.0573 nM | 0.104 nM
H[Aib]QGTFTSDVSK[αMeF]LDTK([AEEA-AEEA-γGlu-C20 diacid])RARDFVQWLLA[Aib]G-NH2 (N-terminus assumed; SMILES CC(C)C[C@H](NC(=O)[C@H](CC(C)C)NC(=O)[C@H](Cc1c[nH]c2ccccc12)NC(=O)[C@H](CCC(N)=O)NC(=O)[C@@H](NC(=O)[C@H](Cc1ccccc1)NC(=O)[C@H](CC(=O)O)NC(=O)[C@H](CCCNC(=N)N)NC(=O)[C@H](C)NC(=O)[C@H](CCCNC(=N)N)NC(=O)[C@H](CCCCNC(=O)COCCOCCNC(=O)COCCOCCNC(=O)CC[C@H](NC(=O)CCCCCCCCCCCCCCCCCCC(=O)O)C(=O)O)NC(=O)[C@@H](NC(=O)[C@H](CC(=O)O)NC(=O)[C@H](CC(C)C)NC(=O)[C@](C)(Cc1ccccc1)NC(=O)[C@H](CCCCN)NC(=O)[C@H](CO)NC(=O)[C@@H](NC(=O)[C@H](CC(=O)O)NC(=O)[C@H](CO)NC(=O)[C@@H](NC(=O)[C@H](Cc1ccccc1)NC(=O)[C@@H](NC(=O)CNC(=O)[C@H](CCC(N)=O)NC(=O)C(C)(C)NC(=O)[C@@H](N)Cc1c[nH]cn1)[C@@H](C)O)[C@@H](C)O)C(C)C)[C@@H](C)O)C(C)C)C(=O)N[C@@H](C)C(=O)NC(C)(C)C(=O)NCC(N)=O) [Peptide 475] | 0.00675 nM | 0.0615 nM
H[Aib]QGTFTSDVSK[αMeF]LDTK([AEEA-AEEA-γGlu-C20 diacid])RARDFVQWLLE[Aib]K-NH2 (N-terminus assumed; SMILES CC(C)C[C@H](NC(=O)[C@H](Cc1c[nH]c2ccccc12)NC(=O)[C@H](CCC(N)=O)NC(=O)[C@@H](NC(=O)[C@H](Cc1ccccc1)NC(=O)[C@H](CC(=O)O)NC(=O)[C@H](CCCNC(=N)N)NC(=O)[C@H](C)NC(=O)[C@H](CCCNC(=N)N)NC(=O)[C@H](CCCCNC(=O)COCCOCCNC(=O)COCCOCCNC(=O)CC[C@H](NC(=O)CCCCCCCCCCCCCCCCCCC(=O)O)C(=O)O)NC(=O)[C@@H](NC(=O)[C@H](CC(=O)O)NC(=O)[C@H](CC(C)C)NC(=O)[C@](C)(Cc1ccccc1)NC(=O)[C@H](CCCCN)NC(=O)[C@H](CO)NC(=O)[C@@H](NC(=O)[C@H](CC(=O)O)NC(=O)[C@H](CO)NC(=O)[C@@H](NC(=O)[C@H](Cc1ccccc1)NC(=O)[C@@H](NC(=O)CNC(=O)[C@H](CCC(N)=O)NC(=O)C(C)(C)NC(=O)[C@@H](N)Cc1c[nH]cn1)[C@@H](C)O)[C@@H](C)O)C(C)C)[C@@H](C)O)C(C)C)C(=O)N[C@@H](CC(C)C)C(=O)N[C@@H](CCC(=O)O)C(=O)NC(C)(C)C(=O)N[C@@H](CCCCN)C(N)=O) [Peptide 481] | 0.0522 nM | 0.35 nM
H[Aib]QGTFTSDVSK[αMeF]LDTK([AEEA-AEEA-γGlu-C18 diacid])RAQDFVRWLLE[Aib]K-NH2 (N-terminus assumed; SMILES CC(C)C[C@H](NC(=O)[C@H](Cc1c[nH]c2ccccc12)NC(=O)[C@H](CCCNC(=N)N)NC(=O)[C@@H](NC(=O)[C@H](Cc1ccccc1)NC(=O)[C@H](CC(=O)O)NC(=O)[C@H](CCC(N)=O)NC(=O)[C@H](C)NC(=O)[C@H](CCCNC(=N)N)NC(=O)[C@H](CCCCNC(=O)COCCOCCNC(=O)COCCOCCNC(=O)CC[C@H](NC(=O)CCCCCCCCCCCCCCCCC(=O)O)C(=O)O)NC(=O)[C@@H](NC(=O)[C@H](CC(=O)O)NC(=O)[C@H](CC(C)C)NC(=O)[C@](C)(Cc1ccccc1)NC(=O)[C@H](CCCCN)NC(=O)[C@H](CO)NC(=O)[C@@H](NC(=O)[C@H](CC(=O)O)NC(=O)[C@H](CO)NC(=O)[C@@H](NC(=O)[C@H](Cc1ccccc1)NC(=O)[C@@H](NC(=O)CNC(=O)[C@H](CCC(N)=O)NC(=O)C(C)(C)NC(=O)[C@@H](N)Cc1c[nH]cn1)[C@@H](C)O)[C@@H](C)O)C(C)C)[C@@H](C)O)C(C)C)C(=O)N[C@@H](CC(C)C)C(=O)N[C@@H](CCC(=O)O)C(=O)NC(C)(C)C(=O)N[C@@H](CCCCN)C(N)=O) [Peptide 478] | 0.00918 nM | 0.19 nM
H[Aib]QGTFTSDVSK[αMeF]LDTK([AEEA-AEEA-γGlu-C18 diacid])RAQDFVQWLL[Aib]E-OH [Peptide 483] | 0.178 nM | 0.169 nM
